Source: patent US20160024487A1 (Novo Nordisk, published 2016)
Where no end group is shown, it is not given here. The star is where a group is joined. Dnp = O=[N+]([O-])c1ccc(*)c([N+](=O)[O-])c1; 2Abz = Nc1ccccc1C(=O)O

Target: Human plasma purified α-thrombin (human, UniProt P00734 328-622)
Experiment: cell-based or functional assay

B1: Lys(Dnp)-DFLAEGGGVRIVGG-Lys(Abz) (peptide)
peptide: K(Dnp)DFLAEGGGVRIVGGK(2Abz)
  Fold-Improved (FpA): 1 fold
  Fold-Improved (PAR-1): 0.1 fold
